Assay results from US20220195407, “OPTIMIZATION OF ENGINEERED MEGANUCLEASES FOR RECOGNITION SEQUENCES” (Precision BioSciences, Inc., published 2022).
Residue numbers refer to the chain shown, from its start.

Tests used:
Test in all cases: cell_activity; CHO iGFFP reporter
LOX 3-4m.2151 = target: T1, LOX 3-4m.2151 (artificial (I-CreI derived))
T1 chain: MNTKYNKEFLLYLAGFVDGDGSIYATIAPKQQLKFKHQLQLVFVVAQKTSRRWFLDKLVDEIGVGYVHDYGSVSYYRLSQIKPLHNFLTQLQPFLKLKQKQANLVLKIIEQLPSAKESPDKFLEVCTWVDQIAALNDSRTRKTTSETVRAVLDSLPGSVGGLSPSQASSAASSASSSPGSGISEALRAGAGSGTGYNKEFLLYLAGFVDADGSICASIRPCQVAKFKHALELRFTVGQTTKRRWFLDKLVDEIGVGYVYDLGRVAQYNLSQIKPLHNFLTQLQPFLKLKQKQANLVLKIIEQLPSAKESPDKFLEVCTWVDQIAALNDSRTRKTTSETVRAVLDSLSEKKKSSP
Description: (§1) A CHO cell reporter system (see WO/2012/167192, FIG. 3) was used to determine whether the engineered meganucleases generated in these studies could recognize and cleave the modified LOX 3-4 recognition sequences in Table 87. To perform the assay, a pair of CHO cell reporter lines were produced, which carried a non-functional Green Fluorescent Protein (GFP) gene expression cassette integrated into the genome of the cell. The GFP gene in each cell line was interrupted by a pair of recognition sequences such that intracellular cleavage of either recognition sequence by a meganuclease would stimulate a homologous recombination event resulting in a functional GFP gene. In both cell lines, one of the recognition sequences was derived from the LOX 3-4 recognition sequence (i.e., those sequences disclosed in Table 87), and the second recognition sequence was specifically recognized by a control meganuclease called “CHO 23/24.” CHO reporter cells comprising a recognition sequence derived from the LOX 3-4 recognition sequence and the CHO 23/24 recognition sequence are referred to herein as “test cells.”
(§2) Novel engineered meganucleases derived from the LOX 3-4x.109 meganuclease were prepared by making amino acid substitutions at one or more positions in the first subunit and one or more positions in the second subunit. These engineered meganucleases were then evaluated for cleavage of the LOX 3-4 recognition sequence modified to have a TTAA center sequence (SEQ ID NO: 341) in the CHO reporter assay according to Example 1. The substitutions in each subunit are provided in Tables 174 and 175, respectively.

LOX 3-4m.2125 = target: T2, LOX 3-4m.2125 (artificial (I-CreI derived))
T2 chain: T1 chain with S50R, G71A, S72Q, S74A, Q80E, T239S, V264I, A265S
Description: as §1, §2

LOX 3-4m.2142 = target: T3, LOX 3-4m.2142 (artificial (I-CreI derived))
T3 chain: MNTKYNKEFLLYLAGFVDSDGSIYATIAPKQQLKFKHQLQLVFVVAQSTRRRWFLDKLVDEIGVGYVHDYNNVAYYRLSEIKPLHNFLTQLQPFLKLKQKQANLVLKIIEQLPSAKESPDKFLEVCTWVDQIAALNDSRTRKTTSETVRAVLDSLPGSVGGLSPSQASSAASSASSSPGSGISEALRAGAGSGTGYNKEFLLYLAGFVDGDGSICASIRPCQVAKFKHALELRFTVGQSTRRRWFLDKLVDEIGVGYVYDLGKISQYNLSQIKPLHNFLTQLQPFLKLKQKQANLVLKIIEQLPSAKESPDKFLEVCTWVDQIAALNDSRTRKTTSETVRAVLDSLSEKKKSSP
Description: as §1, §2

LOX 3-4m.2145 = target: T4, LOX 3-4m.2145 (artificial (I-CreI derived))
T4 chain: T1 chain with K48N, S50R, S72T, T239K, K241C, R263K, V264I, A265S
Description: as §1, §2

LOX 3-4m.2229 = target: T5, LOX 3-4m.2229 (artificial (I-CreI derived))
T5 chain: T1 chain with G19A, S50T, S72R, A210G, T239K, K241C, R263N, V264I
Description: as §1
as §2, with “TCAA” for “TTAA”, “331)” for “341)”, “1.” for “1. The substitutions in each subunit are provided in Tables 174 and 175, respectively.”

LOX 3-4m.2157 = target: T6, LOX 3-4m.2157 (artificial (I-CreI derived))
T6 chain: T3 chain with N71G, N72S, A74S, R139K, R241K, K263R, S265A
Description: as §1
as §2, with “TCAA” for “TTAA”, “331)” for “341)”, “1.” for “1. The substitutions in each subunit are provided in Tables 174 and 175, respectively.”

LOX 3-4m.2189 = target: T7, LOX 3-4m.2189 (artificial (I-CreI derived))
T7 chain: T1 chain with G19A, S50R, Q80E, R139K, A210G, T239K, K241C, V264I, Q271E
Description: as §1
as §2, with “TCAA” for “TTAA”, “331)” for “341)”, “1.” for “1. The substitutions in each subunit are provided in Tables 174 and 175, respectively.”

LOX 3-4m.2165 = target: T8, LOX 3-4m.2165 (artificial (I-CreI derived))
T8 chain: T3 chain with N71R, N72S, A74S, R139K, K263Q, S265A
Description: as §1
as §2, with “TCAA” for “TTAA”, “331)” for “341)”, “1.” for “1. The substitutions in each subunit are provided in Tables 174 and 175, respectively.”

LOX 3-4m.2045 = target: T9, LOX 3-4m.2045 (artificial (I-CreI derived))
T9 chain: T1 chain with S50R, G71S, S72G, V73R, R139K, T239S, K241R, V264I, A265S, H276R
Description: as §1
as §2, with “subunit. The N-terminal subunit recognizes the reverse complement of the AG portion of the four base pair center sequence, which is CT, and the C-terminal subunit recognizes the GC portion of the […] center sequence.” for “subunit.”, “TTGG” for “TTAA”, “248)” for “341)”, “177” for “174”, “178,” for “175,”

LOX 3-4m.1973 = target: T10, LOX 3-4m.1973 (artificial (I-CreI derived))
T10 chain: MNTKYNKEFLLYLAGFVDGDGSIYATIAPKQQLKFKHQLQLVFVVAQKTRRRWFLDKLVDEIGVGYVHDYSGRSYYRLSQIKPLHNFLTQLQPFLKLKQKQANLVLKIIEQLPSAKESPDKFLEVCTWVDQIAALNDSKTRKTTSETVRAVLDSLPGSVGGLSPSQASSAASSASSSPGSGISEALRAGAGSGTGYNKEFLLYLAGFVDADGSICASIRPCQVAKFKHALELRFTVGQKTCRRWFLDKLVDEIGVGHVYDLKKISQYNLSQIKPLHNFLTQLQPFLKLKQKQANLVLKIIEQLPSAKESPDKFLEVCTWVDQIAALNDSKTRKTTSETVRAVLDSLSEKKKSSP
Description: as §1
as §2, with “subunit. The N-terminal subunit recognizes the reverse complement of the AG portion of the four base pair center sequence, which is CT, and the C-terminal subunit recognizes the GC portion of the […] center sequence.” for “subunit.”, “TTGG” for “TTAA”, “248)” for “341)”, “177” for “174”, “178,” for “175,”

LOX 3-4m.1981 = target: T11, LOX 3-4m.1981 (artificial (I-CreI derived))
T11 chain: T10 chain with K239S, C241R, H257Y, K262G, K263S, I264V, K330R
Description: as §1
as §2, with “subunit. The N-terminal subunit recognizes the reverse complement of the AG portion of the four base pair center sequence, which is CT, and the C-terminal subunit recognizes the GC portion of the […] center sequence.” for “subunit.”, “TTGG” for “TTAA”, “248)” for “341)”, “177” for “174”, “178,” for “175,”

LOX 3-4m.1970 = target: T12, LOX 3-4m.1970 (artificial (I-CreI derived))
T12 chain: T10 chain with H257Y, K262G, K263Q, K330R
Description: as §1
as §2, with “subunit. The N-terminal subunit recognizes the reverse complement of the AG portion of the four base pair center sequence, which is CT, and the C-terminal subunit recognizes the GC portion of the […] center sequence.” for “subunit.”, “TTGG” for “TTAA”, “248)” for “341)”, “177” for “174”, “178,” for “175,”

B1: LOX 3-4 TTAA (dsDNA)
DNA 1: GTATAGCATTTAATATACGAAG
DNA 2: CTTCGTATATTAAATGCTATAC
activity (LOX 3-4m.2151): 13 % GFP | activity (LOX 3-4m.2125): 12.7 % GFP | activity (LOX 3-4m.2142): 13.9 % GFP | activity (LOX 3-4m.2145): 12.9 % GFP

B2: LOX 3-4 TCAA (dsDNA)
DNA 1: GTATAGCATTCAATATACGAAG
DNA 2: CTTCGTATATTGAATGCTATAC
activity (LOX 3-4m.2229): 11.8 % GFP | activity (LOX 3-4m.2157): 9.79 % GFP | activity (LOX 3-4m.2189): 11.7 % GFP | activity (LOX 3-4m.2165): 10.3 % GFP

B3: LOX 3-4 TTGG (dsDNA)
DNA 1: GTATAGCATTTGGTATACGAAG
DNA 2: CTTCGTATACCAAATGCTATAC
activity (LOX 3-4m.2045): 14.2 % GFP | activity (LOX 3-4m.1973): 14.3 % GFP | activity (LOX 3-4m.1981): 13.5 % GFP | activity (LOX 3-4m.1970): 13.5 % GFP
